According to the supplement of paper PMC9170038:

Test system: K4 kissing-loop RNA reporter
Test: apparent KD of K4 kissing-loop reporter; higher = weaker reporter binding
Conditions: Eterna round: R107
Method: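 RNA-MaP round R107: designed RNA switches with theophylline, tryptophan, arginine or FMN aptamers are transcribed on-chip within common flanks. They are titrated with a labelled K4 kissing-loop RNA reporter in RNA-MaP buffer (100 mM Tris pH 7.5, 80 mM KCl, 4 mM MgCl2), without ligand or with the indicated ligand. Median apparent KD per design.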

[1] = input ligand: theophylline 20 uM
[2] = input ligand: tryptophan 2.4 mM
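Also: bound reporter read as fluorescence of individual clusters on recovered sequencing chips by microscopy, with normalized cluster intensities fitted with a binding model.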

| Sequence | apparent KD of K4 kissing-loop reporter (input ligand: FMN 200 uM) | apparent KD of K4 kissing-loop reporter (input ligand: arginine 13.2 mM) | apparent KD of K4 kissing-loop reporter (input ligand: none) | apparent KD of K4 kissing-loop reporter [1] | apparent KD of K4 kissing-loop reporter [2] |
| --- | --- | --- | --- | --- | --- |
| UCCUGCAAUCGACCACGAAAGUGGAUGGAUACCAGAGUCGAAAGACUCCCUUGGCAGCCAGUGAUGUUGGAAGCAGGUAAAUAAA [#SwitchBubble 17 #K4Late] | 0.364 µM | 0.359 µM | 0.445 µM | 0.288 µM | 0.406 µM |
| GAUGAAUGCGGAAGGAGCGAGUUUUUGGGAGUGAUGUUCCCUGCAUAUGCACGUGGGAAAGCUCAGGUAGGUCGCCGCGCUUGUU [Same State Arginine B GF 28] | 0.183 µM | 0.244 µM | 0.324 µM | 0.208 µM | 0.204 µM |
| GCCUGUGCGCGAAGGAGCGCCGUGACAGGUUACUGCCUUGGGCAGUGAUGUUGCUCAAUCUGGCAGGUAGGUCGCGUGCACAGGC | 0.236 µM | 0.187 µM | 0.201 µM | 0.156 µM | 0.192 µM |
| UUUUAAUGCAGUGAUGUUGCUAAUAAAACAGAGGAUAUGCAUGGAAGCAGAAGGCUGAUAUAUUAUACUUUAAUAUAUUAUAUUU [JR_SSFMNA_Sub011] | 0.0778 µM | 0.147 µM | 0.121 µM | 0.188 µM | 0.0866 µM |
| UGAUUUAACUGAAGGAGCGGCAAUUGAUAAGGAAAUAUAGUGAUGUUAUAUAAGAGAGAGAGCCAGGUAGGUCGCAGAGGGAGGA [ExArgB.H] | 0.182 µM | 0.105 µM | 0.11 µM | 0.154 µM | 0.145 µM |
| UUAAUAAUUCAAGGAUAUGUUUUUUUUUUCGAGUGAUGUUCGGAAUUAAUAAAUUUAAAAGAUUAUACAGAAGGUGAUAAAUAGU [Cynwulf-mod#1] | 0.103 µM | 0.091 µM | 0.0883 µM | 0.103 µM | 0.0886 µM |
| GAUUUAGAGGCGGCCGCCACUAGUGAUGUUAGUGAUGUUUGAUACUGAAUAUAUCUGCGAGUAGAUAGGACCGGGCCAGAUGGAG [plmfmullin] | 0.225 µM | 0.154 µM | 0.195 µM | 0.179 µM | 0.182 µM |
| ACGUGCACUAGUGAUGUUGGAAAAUAGGAAGGAGCGGGCGAAAGCCCAGGUAGGUCGCCUAAUAGCACGAGCCACGAAAGUGGCA | 0.376 µM | 0.514 µM | 0.645 µM | 0.774 µM | 0.522 µM |
| UUGGCUGGACGGGAUACCAGCCAAAUCGUGUGCUUAGGAUGUCUAAGAGCCAGUGAUGUUGGCCCUUGGCAGCCCUCCUAGCUUG [Ordigear] | 0.154 µM | 0.115 µM | 0.138 µM | 0.124 µM | 0.136 µM |
| UAAUAAAUUCCAGCUAUAUCACUCUUCGAAGGAGCGGACGAAAGUCCAGGUAGGUCGCGAAGAGUGAUGUUCUUUGCGGCGCUGG [Omei KL Arginine A Exc A v5] | 0.0941 µM | 0.0608 µM | 0.0754 µM | 0.132 µM | 0.111 µM |
| GGAUCCACCAGUGAUGUUGGAGAAAACUCCAAGGAUAUGACGAAAGUCAGAAGGUGGUAAUAAGACGUCAAAGACGUCGGAUCCA [FmnA 19 #SwitchBubble #K4Early] | 1.4 µM | 0.149 µM | 0.101 µM | 0.323 µM | 0.15 µM |
| UUUAUUAAGACGGCCGCCACUGAUUCAUAGUGAUGUUAUGAUAUAAUCUUAGUGAUAUUUAUAAACAGGACCGGGUCAAUUAUUA [JR_SSTryptoB_Sub026] | 0.221 µM | 0.173 µM | 0.192 µM | 0.166 µM | 0.162 µM |
| AACUGUCAAGGACAACAUUACUGAGGUGAUACCAGCAUCGAAAGAUGCCCUUGGCAGCACCGACUUGCAGUGAUGUUGCAAGUAA [BrourdMod 11 - Jieux - Exclusion - Theophylline A] | 0.271 µM | 0.219 µM | 0.249 µM | 0.322 µM | 0.247 µM |
| GCUAGGAUGGCAGGAUAUAGUUCGUGAGUGAUGUUCAAAGAACUAAGAGGGACACCUCAUUCUAAACUAGAAGGGCCAUCCUAGC | 0.246 µM | 0.275 µM | 0.276 µM | 0.421 µM | 0.337 µM |
| GCCGUACGCAUGGAUACCAGCACUCGUUGAGUGAUGUUCACGAGGUGGUAUUCGACGGGCUGCCCUUGGCAGCCAUGCGUACGGC | 0.111 µM | 0.0873 µM | 0.102 µM | 0.099 µM | 0.121 µM |
| CGGAGUGAUGUUCCUUUUAUUAAUUAUUUACGAGGACCGGUACGGCCGCCACUCGAUUUAGCUUUUAUUUAAUGCUUGGAUGUUU [JR_SSTryptoA_Sub004] | 0.13 µM | 0.212 µM | 0.14 µM | 0.208 µM | 0.0663 µM |

| Sequence | apparent KD of K4 kissing-loop reporter (input ligand: FMN 200 uM) | apparent KD of K4 kissing-loop reporter (input ligand: arginine 13.2 mM) | apparent KD of K4 kissing-loop reporter (input ligand: none) | apparent KD of K4 kissing-loop reporter [1] | apparent KD of K4 kissing-loop reporter [2] |
| --- | --- | --- | --- | --- | --- |
| GUGAAGGAGCUGCAGUGAUGUUGCAGAAACUAGGAUAUCAGGAAACUGAGAAGGAGUCAACUCCUUCACCUAAAUACUGCAGAAA [KL-SSFMN-A23] | 0.104 µM | 0.13 µM | 0.158 µM | 0.157 µM | 0.147 µM |
| UGUACCGAGUCAGGAUAUACCGUCGAAAGACGAAAUGGAGUGAUGUUCCUUAAACUGCGAAAGCAGGUAGAAGGGACUUGGUACU [FmnBS 30 #SwitchBubble #StaticStem #DoubleMagnetSystem] | 0.165 µM | 0.263 µM | 0.267 µM | 0.263 µM | 0.262 µM |
| AUGCUGUCGGCGUUAAAGUAGUAAUGUGAUACCAGAAAUGCUGUGUUCCCUUGGCAGCACAUUCUUACAGACAGUGAUGUUGUCU [theeternabot_exclusion_KL_Theo_A_8] | 0.414 µM | 0.315 µM | 0.391 µM | 0.39 µM | 0.336 µM |
| GACCUAAGCUAUGAUACCAGUCUGGCACGAAGAAGUGAUGUUUCCCAGCGUUUGUCACUUGACCCUUGGCAGCAUGCGAUCAGCU [theeternabot_sameState_KL_Theo_B_29] | 0.197 µM | 0.106 µM | 0.151 µM | 0.165 µM | 0.128 µM |
| AGGUACUACGGAAGGAGCGCACCAGUGAUGUUGGUGUGUGACCGUGACAUGGCAGUCAAGGUGCAGGUAGGUCGCCGUGGCCUUU [Anatartibe] | 0.143 µM | 0.113 µM | 0.146 µM | 0.122 µM | 0.115 µM |
| AGUGUACAGUCGGCCGCCACUCACUCCUCCUGCGUUAACGAGUGAUGUUUGUUUUUUAGUGGUACGAGGACCGGGACUUCUCUGA [theeternabot_sameState_KL_Trp_B_35] | 0.237 µM | 0.118 µM | 0.275 µM | 0.245 µM | 0.26 µM |
| AAGGCCACGAGAAGGAGCGUGCUGUGGAGUGAUGUUCCAUUGUAGACCUAAGGUCUACGAGCACAGGUAGGUCGCUCGUGGUCAA [Omei KL Arginine B SS A v4] | 0.113 µM | 0.0974 µM | 0.0953 µM | 0.102 µM | 0.0996 µM |
| UGUCAUUGGUCUGAUACCAGCUUGAUCGGAAAACGAUCUGCUGGAGUGAUGUUCCAAUAAAGCCCUUGGCAGCAGACCGAUGACU [TheoBS 7 #SwitchBubble #StaticStem] | 0.854 µM | 0.569 µM | 0.991 µM | 0.961 µM | 0.763 µM |
| AGGUGGGACGUAGGAUAUCCCUAAUGAUUUACUUCCUGGUUGCUACGCUUCCAGUGAUGUUGGAAGGGAGAAGGACGGGCGAGUU [Riatbive] | 0.365 µM | 0.217 µM | 0.213 µM | 0.217 µM | 0.222 µM |
| AGCGAGUGAUGUUCGCUGAUCAUGAGAAGUUAGGAUAUAUACUUGCAUAGAAGGAACUAUUUCAUGACAUUAGAGGCAGUAGUUC [FMN A SS t7] | 0.159 µM | 0.16 µM | 0.158 µM | 0.152 µM | 0.125 µM |
| AAACGUUGGUGCGAUACCAGCUUGCGCGGAAAACGCGCUACUGGAGUGAUGUUCCUAAAUAGCCCUUGGCAGCGCACCGACGAAA [MAT - Same State Theophlline B - Mod of Eli - D9] | 0.193 µM | 0.146 µM | 0.155 µM | 0.107 µM | 0.17 µM |
| GAUUUAGAGGCGGCCGCCACUAGUGAUGUUAGUGAUGUUUGAUACUGUAUAUAUCGGCGUGUAGAUAGGACCGGGCCAGAUGGAG [tbqqmullin] | 0.281 µM | 0.157 µM | 0.235 µM | 0.229 µM | 0.221 µM |
| AGUACGGUGCCGUUCAGAUCAACGUAUGAUACCAGCUCGUAUAUUAGCCCUUGGCAGCAUCCGAGUGAUGUUCGGAUUGUGCCAC [theeternabot_exclusion_KL_Theo_A_45] | 0.113 µM | 0.098 µM | 0.102 µM | 0.0935 µM | 0.102 µM |
| UUAAGGGUCCGAGGAUAUCUCCCAGUGAUGUUGGGCGAUACGGCCCUUAAGACUAAUGGUUGAAGGAGAGAAGGCGGCUCCCGAU [Edmaisle] | 0.146 µM | 0.12 µM | 0.128 µM | 0.136 µM | 0.112 µM |
| AGACUUCACCGAAGGAGCGACGUGGCCUAGUGAUGUUAGGCACGAGAGAAAUCUCGUGUACGUCAGGUAGGUCGCGGUGAAGUCA [Omei KL Arginine B SS C v7] | 0.909 µM | 0.648 µM | 0.939 µM | 0.862 µM | 0.816 µM |
| GGGCGUAUUCACCGAGUGAUGUUCGGAAGGAAGGAUAUUCAAGAUUGAAGAAGGUCCGGCCCAUCGGCCAUUAAACUUGAAAGGU [theeternabot_sameState_KL_FMN_A_48] | 0.171 µM | 0.113 µM | 0.139 µM | 0.162 µM | 0.117 µM |
